Data from patent US20030185828.

Target: recombinant aggrecan G1G2 (globular domain 1-globular domain 2 of human aggrecan with N-terminal FLAG tag and C-terminal His tag), P16112
Sequence (P16112 20-675): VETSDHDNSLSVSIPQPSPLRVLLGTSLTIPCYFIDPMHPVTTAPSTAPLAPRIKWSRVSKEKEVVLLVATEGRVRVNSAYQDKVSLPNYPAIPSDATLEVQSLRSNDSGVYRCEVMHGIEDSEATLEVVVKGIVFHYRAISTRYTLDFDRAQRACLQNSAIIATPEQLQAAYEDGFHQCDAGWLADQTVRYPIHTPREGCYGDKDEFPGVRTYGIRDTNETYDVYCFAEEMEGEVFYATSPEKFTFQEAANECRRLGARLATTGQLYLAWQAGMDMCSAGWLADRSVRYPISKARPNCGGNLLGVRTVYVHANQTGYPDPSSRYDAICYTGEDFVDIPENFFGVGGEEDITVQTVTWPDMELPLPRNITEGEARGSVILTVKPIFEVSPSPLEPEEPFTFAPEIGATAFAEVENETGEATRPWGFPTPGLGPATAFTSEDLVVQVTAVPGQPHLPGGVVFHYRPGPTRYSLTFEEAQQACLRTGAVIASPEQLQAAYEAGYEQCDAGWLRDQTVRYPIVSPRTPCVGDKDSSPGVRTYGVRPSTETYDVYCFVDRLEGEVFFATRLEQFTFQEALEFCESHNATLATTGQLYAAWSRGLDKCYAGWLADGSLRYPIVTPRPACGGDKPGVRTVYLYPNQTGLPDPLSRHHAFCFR

B1: MDTS8 full-length protein (MDTS8Full) with FLAG tag added to the C-terminus, expressed from plasmid pCEPdE2-MDTS8Full-FLAG (protein)
chain: MECALLLACAFPAAGSGPPRGLAGLGRVAKALQLCCLCCASVAAALASDSSSGASGLNDDYVFVTPVEVDSAGSYISHDILHNGRKKRSAQNARSSLHYRFSAFGQELHLELKPSAILSSHFIVQVLGKDGASETQKPEVQQCFYQGFIRNDSSSSVAVSTCAGLSGLIRTRKNEFLISPLPQLLAQEHNYSSPAGHHPHVLYKRTAEEKIQRYRGYPGSGRNYPGYSPSHIPHASQSRETEYHHRRLQKQHFCGRRKKYAPKPPTEDTYLRFDEYGSSGRPRRSAGKSQKGLNVETLVVADKKMVEKHGKGNVTTYILTVMNMVSGLFKDGTIGSDINVVVVSLILLEQEPGGLLINHHADQSLNSFCQWQSALIGKNGKRHDHAILLTGFDICSWKNEPCDTLGFAPISGMCSKYRSCTINEDTGLGLAFTIAHESGHNFGMIHDGEGNPCRKAEGNIMSPTLTGNNGVFSWSSCSRQYLKKFLSTPQAGCLVDEPKQAGQYKYPDKLPGQIYDADTQCKWQFGAKAKLCSLGFVKDICKSLWCHRVGHRCETKFMPAAEGTVCGLSMWCRQGQCVKFGELGPRPIHGQWSAWSKWSECSRTCGGGVKFQERHCNNPKPQYGGLFCPGSSRIYQLCNINPCNENSLDFRAQQCAEYNSKPFRGWFYQWKPYTKVEEEDRCKLYCKAENFEFFFAMSGKVKDGTPCSPNKNDVCIDGVCELVGCDHELGSKAVSDACGVCKGDNSTCKFYKGLYLNQHKANEYYPVVIIPAGARSIEIQELQVSSSYLAVRSLSQKYYLTGGWSIDWPGEFPFAGTTFEYQRSFNRPERLYAPGPTNETLVFEILMQGKNPGIAWKYALPKVMNGTPPATKRPAYTWSIVQSECSVSCGGGYINVKAICLRDQNTQVNSSFCSAKTKPVTEPKICNAFSCPAYWMPGEWSTCSKACAGGQQSRKIQCVQKKPFQKEEAVLHSLCPVSTPTQVQACNSHACPPQWSLGPWSQCSKTCGRGVRKRELLCKGSAAETLPESQCTSLPRPELQEGCVLGRCPKNSRLQWVASSWSECSATCGLGVRKREMKCSEKGFQGKLITFPERRCRNIKKPNLDLEETCNRRACPAHPVYNMVAGWYSLPWQQCTVTCGGGVQTRSVHCVQQGRPSSSCLLHQKPPVLRACNTNFCPAPEKREDPSCVDFFNWCHLVPQHGVCNHKFYGKQCCKSCTRKIAAADYKDDDDK
  degradation product reactive with the anti-aggrecanase neoepitope antibody (western blotting after overnight reaction at 37 C): such degradation products were detected when the culture supernatant of the HEK293-EBNA cell transfected with the plasmid pCEPdE2-MDTS8Full-FLAG was reacted with the recombinant G1G2
